Measurements published in patent publication US20140087995A1 (published 2014).
Numbered stars: 1 amine (or outer) side, 2 acyl side, 3 side chain; on linkers, the order of the positions; unused ones are H or OH. Bridge positions count the residues as written; N and C are the ends. Side chains are listed from the residue outwards. Ends that are not written are not given here. * marks the point of attachment. C20 diacid = O=C(O)CCCCCCCCCCCCCCCCCCC(=O)*; γGlu = O=C(O)[C@H](CCC(=O)[*:2])N[*:1]

Assays:
rat calcitonin receptor [1] = molecular target: T1, rat calcitonin receptor (rat, UniProt P32214 25-516); test: SPA competition with 125I-calcitonin, membranes with rat calcitonin receptor (Assay VIII)
T1 construct: whole, on cells; Used as membranes prepared from the transfected cells; also called rCTR; rCT
T1 sequence (looked up): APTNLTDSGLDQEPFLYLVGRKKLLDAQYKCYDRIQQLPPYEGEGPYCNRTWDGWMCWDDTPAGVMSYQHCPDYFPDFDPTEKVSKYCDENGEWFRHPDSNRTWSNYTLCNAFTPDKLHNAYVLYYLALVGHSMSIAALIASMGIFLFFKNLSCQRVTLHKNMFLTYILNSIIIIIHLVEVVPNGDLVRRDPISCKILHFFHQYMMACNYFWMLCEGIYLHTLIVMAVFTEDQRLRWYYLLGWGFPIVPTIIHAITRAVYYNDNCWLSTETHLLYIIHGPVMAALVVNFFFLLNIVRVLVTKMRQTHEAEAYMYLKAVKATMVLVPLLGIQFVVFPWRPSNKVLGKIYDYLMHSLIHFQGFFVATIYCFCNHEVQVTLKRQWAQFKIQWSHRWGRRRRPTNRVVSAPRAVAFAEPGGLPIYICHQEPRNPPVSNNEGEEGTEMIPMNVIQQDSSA

rat calcitonin receptor [2] = molecular target: T1, rat calcitonin receptor; test: ratio of binding IC50 at rat calcitonin receptor to IC50 at rat amylin receptor (reference)
[3] = molecular target: T2, human calcitonin receptor (human, UniProt P30988 25-474); test: ratio of binding IC50 at human calcitonin receptor to IC50 at human amylin receptor (reference)
T2 construct: whole, on cells; Used as membranes prepared from the transfected cells; also called hCTR; hCT
T2 sequence (looked up): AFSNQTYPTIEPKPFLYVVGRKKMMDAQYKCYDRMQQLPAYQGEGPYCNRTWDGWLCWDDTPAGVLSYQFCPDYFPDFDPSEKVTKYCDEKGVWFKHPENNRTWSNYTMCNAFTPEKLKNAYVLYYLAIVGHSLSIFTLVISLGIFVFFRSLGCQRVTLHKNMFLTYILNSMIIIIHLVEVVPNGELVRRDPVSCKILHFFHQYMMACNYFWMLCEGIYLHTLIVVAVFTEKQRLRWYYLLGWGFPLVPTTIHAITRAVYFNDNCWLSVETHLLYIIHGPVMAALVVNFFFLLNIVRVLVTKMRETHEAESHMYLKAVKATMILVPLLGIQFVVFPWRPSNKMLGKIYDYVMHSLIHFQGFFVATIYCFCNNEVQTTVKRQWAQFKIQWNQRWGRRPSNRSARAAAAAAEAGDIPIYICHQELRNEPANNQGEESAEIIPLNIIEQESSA
How it was run: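 Scintillation proximity competition binding on cell membranes at 35 ng/μL with SPA beads, in 50 mM Hepes pH 7.4, 1 mM CaCl2, 5 mM MgCl₂, 0.1% OA, 0.02% Tween20. Incubated 120 min at 25° C with shaking. IC₅₀ from one-site competition fit.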

[4] = molecular target: T3, rat amylin receptor (rat calcitonin receptor with rat RAMP 3) (rat, UniProt P32214 25-516; Q9JJ73 23-147); test: SPA competition with 125I-rat amylin, membranes with rat calcitonin receptor + rat RAMP3 (Assay VI)
T3 construct: whole, on cells; Used as membranes prepared from the transfected cells; also called rAmylin-R; rAmylin
T3 sequence (looked up) 1: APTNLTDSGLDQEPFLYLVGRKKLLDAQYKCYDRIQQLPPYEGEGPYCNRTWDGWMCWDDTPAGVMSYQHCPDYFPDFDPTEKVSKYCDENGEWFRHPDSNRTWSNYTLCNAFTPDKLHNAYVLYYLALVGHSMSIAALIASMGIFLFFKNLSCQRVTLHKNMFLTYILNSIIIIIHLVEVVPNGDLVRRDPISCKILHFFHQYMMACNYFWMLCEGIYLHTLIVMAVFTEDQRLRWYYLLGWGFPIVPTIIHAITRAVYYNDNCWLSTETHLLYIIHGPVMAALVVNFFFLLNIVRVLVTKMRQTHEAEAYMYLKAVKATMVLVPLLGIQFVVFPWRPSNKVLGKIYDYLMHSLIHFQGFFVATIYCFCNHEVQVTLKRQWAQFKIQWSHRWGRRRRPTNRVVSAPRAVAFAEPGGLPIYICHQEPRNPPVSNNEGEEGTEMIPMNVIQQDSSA
T3 sequence (looked up) 2: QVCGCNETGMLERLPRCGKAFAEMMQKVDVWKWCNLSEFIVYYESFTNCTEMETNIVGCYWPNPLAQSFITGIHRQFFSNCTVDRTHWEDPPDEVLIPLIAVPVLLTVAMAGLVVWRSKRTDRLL

Binder | IC50 (rat calcitonin receptor [1]) [nM] | Ratio rCT/rAmylin binding (rat calcitonin receptor [2]) | Ratio hCT/hAmylin binding [3] | IC50 [4] [nM]
{C20 diacid-γGlu}-GRCNTATCATQRLAHFLRHSSPNFGAIPSSTNVGHNTY-NH2 (disulfide 3-8; SMILES CC[C@H](C)[C@H](NC(=O)[C@H](C)NC(=O)CNC(=O)[C@H](Cc1ccccc1)NC(=O)[C@H](CC(N)=O)NC(=O)[C@@H]1CCCN1C(=O)[C@H](CO)NC(=O)[C@H](CO)NC(=O)[C@H](Cc1c[nH]cn1)NC(=O)[C@H](CCCNC(=N)N)NC(=O)[C@H](CC(C)C)NC(=O)[C@H](Cc1ccccc1)NC(=O)[C@H](Cc1c[nH]cn1)NC(=O)[C@H](C)NC(=O)[C@H](CC(C)C)NC(=O)[C@H](CCCNC(=N)N)NC(=O)[C@H](CCC(N)=O)NC(=O)[C@@H](NC(=O)[C@H](C)NC(=O)[C@@H]1CSSC[C@H](NC(=O)[C@H](CCCNC(=N)N)NC(=O)CNC(=O)CC[C@H](NC(=O)CCCCCCCCCCCCCCCCCCC(=O)O)C(=O)O)C(=O)N[C@@H](CC(N)=O)C(=O)N[C@@H]([C@@H](C)O)C(=O)N[C@@H](C)C(=O)N[C@@H]([C@@H](C)O)C(=O)N1)[C@@H](C)O)C(=O)N1CCC[C@H]1C(=O)N[C@@H](CO)C(=O)N[C@@H](CO)C(=O)N[C@H](C(=O)N[C@@H](CC(N)=O)C(=O)N[C@H](C(=O)NCC(=O)N[C@@H](Cc1c[nH]cn1)C(=O)N[C@@H](CC(N)=O)C(=O)N[C@H](C(=O)N[C@@H](Cc1ccc(O)cc1)C(N)=O)[C@@H](C)O)C(C)C)[C@@H](C)O, Analogue of human amylin extended by Gly at the N-terminus; disulfide and C-terminal amide as told for h-amylin; also called compound 100) | 311 | 27.7 | 65.3 | 11.2
{C20 diacid-γGlu}-GRCNTATCATQRLAAFLRHSSPNFGAIPSSTNVGHNTY-NH2 (disulfide 3-8; SMILES CC[C@H](C)[C@H](NC(=O)[C@H](C)NC(=O)CNC(=O)[C@H](Cc1ccccc1)NC(=O)[C@H](CC(N)=O)NC(=O)[C@@H]1CCCN1C(=O)[C@H](CO)NC(=O)[C@H](CO)NC(=O)[C@H](Cc1c[nH]cn1)NC(=O)[C@H](CCCNC(=N)N)NC(=O)[C@H](CC(C)C)NC(=O)[C@H](Cc1ccccc1)NC(=O)[C@H](C)NC(=O)[C@H](C)NC(=O)[C@H](CC(C)C)NC(=O)[C@H](CCCNC(=N)N)NC(=O)[C@H](CCC(N)=O)NC(=O)[C@@H](NC(=O)[C@H](C)NC(=O)[C@@H]1CSSC[C@H](NC(=O)[C@H](CCCNC(=N)N)NC(=O)CNC(=O)CC[C@H](NC(=O)CCCCCCCCCCCCCCCCCCC(=O)O)C(=O)O)C(=O)N[C@@H](CC(N)=O)C(=O)N[C@@H]([C@@H](C)O)C(=O)N[C@@H](C)C(=O)N[C@@H]([C@@H](C)O)C(=O)N1)[C@@H](C)O)C(=O)N1CCC[C@H]1C(=O)N[C@@H](CO)C(=O)N[C@@H](CO)C(=O)N[C@H](C(=O)N[C@@H](CC(N)=O)C(=O)N[C@H](C(=O)NCC(=O)N[C@@H](Cc1c[nH]cn1)C(=O)N[C@@H](CC(N)=O)C(=O)N[C@H](C(=O)N[C@@H](Cc1ccc(O)cc1)C(N)=O)[C@@H](C)O)C(C)C)[C@@H](C)O, Analogue of human amylin extended by Gly at the N-terminus; disulfide and C-terminal amide as told for h-amylin) | 492 | 60.9 | 68.6 | 8.07
{C20 diacid-γGlu}-GRCNTATCATQRLAHFLRHSSPNFGAIPSSTNVGSNTY-NH2 (disulfide 3-8; SMILES CC[C@H](C)[C@H](NC(=O)[C@H](C)NC(=O)CNC(=O)[C@H](Cc1ccccc1)NC(=O)[C@H](CC(N)=O)NC(=O)[C@@H]1CCCN1C(=O)[C@H](CO)NC(=O)[C@H](CO)NC(=O)[C@H](Cc1c[nH]cn1)NC(=O)[C@H](CCCNC(=N)N)NC(=O)[C@H](CC(C)C)NC(=O)[C@H](Cc1ccccc1)NC(=O)[C@H](Cc1c[nH]cn1)NC(=O)[C@H](C)NC(=O)[C@H](CC(C)C)NC(=O)[C@H](CCCNC(=N)N)NC(=O)[C@H](CCC(N)=O)NC(=O)[C@@H](NC(=O)[C@H](C)NC(=O)[C@@H]1CSSC[C@H](NC(=O)[C@H](CCCNC(=N)N)NC(=O)CNC(=O)CC[C@H](NC(=O)CCCCCCCCCCCCCCCCCCC(=O)O)C(=O)O)C(=O)N[C@@H](CC(N)=O)C(=O)N[C@@H]([C@@H](C)O)C(=O)N[C@@H](C)C(=O)N[C@@H]([C@@H](C)O)C(=O)N1)[C@@H](C)O)C(=O)N1CCC[C@H]1C(=O)N[C@@H](CO)C(=O)N[C@@H](CO)C(=O)N[C@H](C(=O)N[C@@H](CC(N)=O)C(=O)N[C@H](C(=O)NCC(=O)N[C@@H](CO)C(=O)N[C@@H](CC(N)=O)C(=O)N[C@H](C(=O)N[C@@H](Cc1ccc(O)cc1)C(N)=O)[C@@H](C)O)C(C)C)[C@@H](C)O, Analogue of human amylin extended by Gly at the N-terminus; disulfide and C-terminal amide as told for h-amylin; also called compound 99) | 216 | 79.8 | 100 | 2.7
K([γGlu-C20 diacid])CNTATCATQRLAAFLRHSSPNFGAIPSSTNVGPNTY-NH2 (disulfide 2-7; N-terminus assumed; SMILES CC[C@H](C)[C@H](NC(=O)[C@H](C)NC(=O)CNC(=O)[C@H](Cc1ccccc1)NC(=O)[C@H](CC(N)=O)NC(=O)[C@@H]1CCCN1C(=O)[C@H](CO)NC(=O)[C@H](CO)NC(=O)[C@H](Cc1c[nH]cn1)NC(=O)[C@H](CCCNC(=N)N)NC(=O)[C@H](CC(C)C)NC(=O)[C@H](Cc1ccccc1)NC(=O)[C@H](C)NC(=O)[C@H](C)NC(=O)[C@H](CC(C)C)NC(=O)[C@H](CCCNC(=N)N)NC(=O)[C@H](CCC(N)=O)NC(=O)[C@@H](NC(=O)[C@H](C)NC(=O)[C@@H]1CSSC[C@H](NC(=O)[C@@H](N)CCCCNC(=O)CC[C@H](NC(=O)CCCCCCCCCCCCCCCCCCC(=O)O)C(=O)O)C(=O)N[C@@H](CC(N)=O)C(=O)N[C@@H]([C@@H](C)O)C(=O)N[C@@H](C)C(=O)N[C@@H]([C@@H](C)O)C(=O)N1)[C@@H](C)O)C(=O)N1CCC[C@H]1C(=O)N[C@@H](CO)C(=O)N[C@@H](CO)C(=O)N[C@H](C(=O)N[C@@H](CC(N)=O)C(=O)N[C@H](C(=O)NCC(=O)N1CCC[C@H]1C(=O)N[C@@H](CC(N)=O)C(=O)N[C@H](C(=O)N[C@@H](Cc1ccc(O)cc1)C(N)=O)[C@@H](C)O)C(C)C)[C@@H](C)O, Analogue of human amylin; disulfide and C-terminal amide as told for h-amylin; also called compound 94) | 111 | 280 | 46.3 | 0.397
K([γGlu-C20 diacid])CNTATCATQRLAHFLRHSSPNFGAIPSSTNVGPNTY-NH2 (disulfide 2-7; N-terminus assumed; SMILES CC[C@H](C)[C@H](NC(=O)[C@H](C)NC(=O)CNC(=O)[C@H](Cc1ccccc1)NC(=O)[C@H](CC(N)=O)NC(=O)[C@@H]1CCCN1C(=O)[C@H](CO)NC(=O)[C@H](CO)NC(=O)[C@H](Cc1c[nH]cn1)NC(=O)[C@H](CCCNC(=N)N)NC(=O)[C@H](CC(C)C)NC(=O)[C@H](Cc1ccccc1)NC(=O)[C@H](Cc1c[nH]cn1)NC(=O)[C@H](C)NC(=O)[C@H](CC(C)C)NC(=O)[C@H](CCCNC(=N)N)NC(=O)[C@H](CCC(N)=O)NC(=O)[C@@H](NC(=O)[C@H](C)NC(=O)[C@@H]1CSSC[C@H](NC(=O)[C@@H](N)CCCCNC(=O)CC[C@H](NC(=O)CCCCCCCCCCCCCCCCCCC(=O)O)C(=O)O)C(=O)N[C@@H](CC(N)=O)C(=O)N[C@@H]([C@@H](C)O)C(=O)N[C@@H](C)C(=O)N[C@@H]([C@@H](C)O)C(=O)N1)[C@@H](C)O)C(=O)N1CCC[C@H]1C(=O)N[C@@H](CO)C(=O)N[C@@H](CO)C(=O)N[C@H](C(=O)N[C@@H](CC(N)=O)C(=O)N[C@H](C(=O)NCC(=O)N1CCC[C@H]1C(=O)N[C@@H](CC(N)=O)C(=O)N[C@H](C(=O)N[C@@H](Cc1ccc(O)cc1)C(N)=O)[C@@H](C)O)C(C)C)[C@@H](C)O, Analogue of human amylin; disulfide and C-terminal amide as told for h-amylin; also called compound 67) | 14.7 | 85.4 | 51.6 | 0.172
